Source: PMC11215725, “A Potent Sybody Selectively Inhibits α-Synuclein Amyloid Formation by Binding to the P1 Region” (Journal of Medicinal Chemistry, 2024)
* marks the point of attachment. Biotin = O=C1N[C@H]2[C@H](CS[C@H]2CCCCC(=O)*)N1

How the values were obtained:
[1] = molecular target: WT α-syn samples collected after aggregation for 48 h (Homo sapiens (Human)., UniProt P37840); assay: ELISA; indirect ELISA: aliquots of a 20 μM WT α-syn aggregation taken at 0, 5, 10, 24 and 48 h coated on the plate, 2 μM αSP1, detection by anti-six-His HRP; conditions: both partners purified
[2] = molecular target: WT α-syn stabilized oligomers (Homo sapiens (Human)., UniProt P37840); assay: ELISA; 80 pmol αSP1 immobilised on the plate, 160 pmol of each α-syn species added, detection by anti-α-syn-HRP; blocking with 5% goat serum in TBS; conditions: both partners purified
[3] = molecular target: wild-type α-synuclein, monomeric (UniProt P37840); assay: ELISA; indirect ELISA: 30 μM WT or ΔP1 α-syn monomers coated on MaxiSorp plate, 1-10 μM αSP1 for 1 h at room temperature, detection by anti-six-His HRP; TBS; conditions: both partners purified
[4] = molecular target: T1, synthetic peptide with the sequence of P1 from α-syn (Homo sapiens (Human)., SMILES CC(C)C[C@H](NC(=O)[C@@H](NC(=O)CNC(=O)CCCC[C@@H]1SC[C@@H]2NC(=O)N[C@@H]21)C(C)C)C(=O)N[C@@H](Cc1ccc(O)cc1)C(=O)N[C@H](C(=O)NCC(=O)N[C@@H](CO)C(N)=O)C(C)C); assay: ELISA; screen in 96 wells: protein A coated, anti-c-Myc antibody, sybody from diluted periplasmic extract captured, then 500 nM biotinylated peptide, streptavidin-HRP; TBS with 0.5% BSA; OD 650 nm; conditions: one partner purified
T1 construct: P1 region of α-synuclein, residues 36-42; also called P1 peptide; peptide P1; source: synthetic peptide, bought: GenScript
T1 chain: Biotin-GVLYVGS-NH2

Measured: binding result

B1: sybody αSP1 (VHH)
VHH: QVQLVESGGGLVQAGGSLRLSCAASGFPVRHQWMEWYRQAPGKEREWVAAISSFGQWTKYADSVKGRFTISRDNAKNTVYLQMNSLKPEDTAVYYCVVEVGYEYYGQGTQVTVSA
notes: His35 stands in CDR1; Synthetic single-domain antibody; results: NTA-Alexa Fluor 647; this is not a covalent change of a residue; also called aSP1; source: in periplasmic extract for the screen; purified (Ni-NTA, SEC) for all other experiments; not shown: Myc, C-terminal, kept; His tag, C-terminal, kept
binds: all assays above
